Earlier results in paper PMC6723671.

Biological target: CD150 (SLAM) ECD (Homo sapiens) (UniProt Q13291)

Kd: > 200 µM
Substance: CD150 (SLAM) ECD (from UniProt Q13291)
